Source: patent publication US20240254227A1 (Alector, published 2024)
Residue numbers refer to the chain shown, from its start. Values belong to the binder of their own block, whether it stands above or below them.

How the values were obtained:
[1] = molecular target: T1, recombinant murine CD300LB overexpressed on BaF/3 cells (mouse, UniProt Q3U497 18-209); test: cell-based or functional assay
T1 sequence: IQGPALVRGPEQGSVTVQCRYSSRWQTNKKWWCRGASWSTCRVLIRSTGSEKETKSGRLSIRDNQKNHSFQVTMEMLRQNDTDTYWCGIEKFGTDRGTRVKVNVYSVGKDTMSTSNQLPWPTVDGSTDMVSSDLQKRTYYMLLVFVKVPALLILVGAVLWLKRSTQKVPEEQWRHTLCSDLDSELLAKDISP

[2] = molecular target: T1, recombinant murine CD300LB …; test: flow cytometry, BaF/3 cells overexpressing muCD300LB
Method: Purified anti-CD300LB antibodies of the present disclosure were evaluated for their binding affinity to either Jurkat cells overexpressing recombinant huCD300LB or BaF/3 cells overexpressing recombinant muCD300LB. Binding of anti-CD300LB antibodies to the cells was determined as follows. Cells were harvested, washed, and labeled with propidium iodide for viability discrimination. After washing the cells with PBS, 1×10⁵ cells were aliquoted per well in 96-well U-bottom plates and incubated with 100 μL of purified anti-CD300LB antibody at various concentrations in FACS buffer (PBS+2% FBS). After this primary incubation, the supernatant was removed via centrifugation, the cells washed twice with 150 μL of ice-cold FACS buffer, and then incubated with the appropriate secondary antibody on ice for 30 minutes. Following the secondary antibody incubation, the cells were again washed twice with ice-cold FACS buffer and resuspended in a final volume of 200 L FACS buffer. Flow cytometry analysis was then performed using the FACSCanto system (BD Biosciences).

[3] = molecular target: T2, recombinant human CD300LB overexpressed on Jurkat cells (human, UniProt A8K4G0 18-201); test: flow cytometry, stable Jurkat cells, supernatant or 10 ug/mL, isotype subtracted
T2 construct: also called huCD300LB; huCD300LB-expressing Jurkat cells
T2 sequence: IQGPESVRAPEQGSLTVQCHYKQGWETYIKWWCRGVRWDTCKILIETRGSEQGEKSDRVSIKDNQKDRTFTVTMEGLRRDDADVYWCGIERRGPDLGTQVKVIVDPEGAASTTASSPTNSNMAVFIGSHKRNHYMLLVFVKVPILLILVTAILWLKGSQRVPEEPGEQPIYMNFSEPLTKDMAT
Method: (§1) Purified anti-CD300LB antibodies of the present disclosure were also evaluated for species cross-reactivity to mouse and human CD300LB stably expressed in Jurkat cells (generation of which is described above). Cells were counted and labeled with 200 nM CFSE, 500 nM VioBlue, or a combination of the two to discriminate between human CD300LB, Parental cells and mouse CD300LB. Cells were washed thoroughly with PBS containing 2% fetal bovine serum then resuspended at a total of 240,000 cells per well. Hybridoma supernatants (100 L) or purified antibodies at 10 μg/mL were added and incubated for one hour before the cells were washed again and stained with an APC-labeled anti-human or anti-mouse secondary. Cells were then analyzed using a BD FACSCanto II. Antibodies were analyzed for binding to mouse or human CD300LB by FlowJo software by gating on live cells, then the APC gMFI calculated for each labeled population by subtraction of the gMFI of the appropriate isotype control.

[4] = molecular target: T3, murine CD300LB stably expressed on Jurkat cells (mouse, UniProt Q3U497 18-209); test: as above
T3 construct: also called muCD300LB; mouse CD300LB
T3 sequence: T1 sequence
Method: as §1

[5] = molecular target: T4, murine CD300LB on wild type mouse bone marrow macrophages (mouse, UniProt Q3U497 18-209); test: flow cytometry, wild type mouse bone marrow macrophages, 10 ug/mL, isotype subtracted
T4 construct: Endogenous receptor on primary cells; also called mCD300LB; Wt BMM
T4 sequence: T1 sequence
Method: To further examine the specificity of the anti-CD300LB antibodies to muCD300LB, bone marrow macrophages (BMM) from wild type (WT) and CD300LB knockout mice (KO) were analyzed for antibody binding by flow cytometry. Bone marrow from these mice was harvested and plated into three 20 cm PETRI dishes in complete media containing 50 ng/mL murine M-CSF (Peprotech). Media was changed every three days until day 6, when cells were harvested. Cells were detached with PBS 3 mM EDTA, washed and counted and plated at 100,000 cells/well in a 96 well plate. Cells were incubated with murine Fc block (Clone 2.4G2, BD) then with 10 μg/mL anti-CD300LB antibodies for 30 minutes on ice. […] Cells were washed twice more with 150 μL FACS buffer then resuspended to 100 μL in FACS buffer analyzed using a BD Canto II flow cytometer to calculate the geometric MFI minus the gMFI of the isotype control. Dead cells were stained with live/dead staining kit (Invitrogen).

B1: anti-CD300LB antibody CD-14 (antibody, V domains shown)
VH: QIQLVQSGPELKKPGETVKISCKASGYTFTDYSLHWVKQTPEKNLKWMAWINTETGAPTYADDFKGRFAFSLETSSNTAYLLINNLKNEDTATYFCALTMVNYWGQGTTLTVSS
VL: DIVMTQSQKFMSTSVGDRVSVTCKASQNVGIRVAWHQQKPGQSPKTLIYSTSYRYSGVPDRFTGSGSGTEFILTISNVQSEDLAEYFCQQYNSYPYTFGGGTKLEIK
Luminescence in BaF/3 [1]: 19700
gMFI [2]: 19400 gMFI
gMFI [3]: 59 gMFI
gMFI [4]: 950 gMFI

B3: anti-CD300LB antibody CD-10 (antibody, V domains shown)
VH: QVQLQQSGPELVRPGVSVKISCKGSGYTFTDYAMHWVKQSHVRSREWIGVIGTYNGHTNYNQKFKGKATMTVDKSSSTAYLELARLTSEDSAIYYCARSGSYYYSMDYWGQGTSVTVSS
VL: QIVLTQSPAIMSASPGEKVTMTCSASSSVNYMHWYQQKSGTSPKRWIYDTSKLSSGVPARFSGSGSGTSYSLTISTMEAEDAATYYCQQWSSNPPMTFGGGTKLEIK
gMFI [2]: 6260 gMFI
gMFI [3]: 18 gMFI
gMFI [4]: 284 gMFI
gMFI [5]: 192 gMFI

B4: anti-CD300LB antibody CD-12 (antibody, V domains shown)
VH: QIQLVQSGPELKKPGETVKISCKASGYTFTDYSMHWVRQAPGKGLKWMAWINTETGEATHADDFKGRFDFSLDTSASTAYLQIKNLKNEDTGIYFCVCYGSSYGMDYWGQGTSVTVSS
VL: DIVLTQSPASLPVSLGQRATISCRASKSVRTSGASYMHWYQQKPGQPPKLLIYLASNLKSGVPTRFSGSGSGTDFTLNIHPVEEEDAATYYCQHNREVPPTFGGGTKLEIK
Luminescence in BaF/3 [1]: 22800
gMFI [2]: 9800 gMFI
gMFI [5]: 413 gMFI

B6: anti-CD300LB antibody CD-13 (antibody, V domains shown)
VH: QIQLVQSGPELKKPGETVKISCKASGYTFTDYSMHWVKQAPGKGFKWMAWINTETGAPTHADDFRGRFAFSLETSASTAFLQISNLKTEDTATYFCVTFGKSYGMNYWGQGTSVTVSS
VL: B4 VL with P12S, R30G, T31S, A34S, M37L, K59E, T64A, D74E, R96A
Luminescence in BaF/3 [1]: 22400
gMFI [2]: 22100 gMFI
gMFI [3]: 324 gMFI
gMFI [4]: 1190 gMFI

B9: anti-CD300LB antibody CD-05 (antibody, V domains shown)
VH: QVQLVQSGAEVKKPGASVKVSCKASGYTFSRYYINWVRQAPGQGLEWMGWINPNSGGTNYAQKFQGRVTMTRDTSTSTVYMELSSLRSEDTAVYYCTTDQLRFGKTGPYYGMDVWGQGTTVTVSS
VL: DIQMTQSPSSLSASVGDRVTITCRASQNIGTYLNWYQQKPGKAPKLLIYAASSLQSGVPSRFSGSGSGTDFTLTISSLQPEDFATYYCQQSYSDTLTFGGGTKVEIK
gMFI [3]: 1810 gMFI
gMFI [4]: 172 gMFI

B10: anti-CD300LB antibody CD-06 (antibody, V domains shown)
VH: QVQLVQSGAEVKKPGASVKVSCKASGYTFTTYAVHWVRQAPGQGLEWMGIVNPNSGGTNYAQKFQGRVTMTRDTSTSTVYMELSSLRSEDTAVYYCARDIVPMNNFYNYYYGMDVWGQGTTVTVSS
VL: B9 VL with N28S, G30S, T31S, A51T, S53T, S93R, D94I, T95P, L96Y, G100Q
gMFI [3]: 3180 gMFI
gMFI [4]: -48.7 gMFI

B11: anti-CD300LB antibody CD-11 (antibody, V domains shown)
VH: QIQLVQSGPEVKKPGETVKISCKASGYTLTDYSMHWVMQTPGTGLKWMAWMNTETGEPTYADDFKGRFAFSLETSAGTAYLQIDNLKNEDTATYFCATYGKSYGMKYWGQGTSVTVSS
VL: DIVLTQSPPSLAVSLGQRATISCRATKSVSPYLHWYQQTPGQPPKLLIYLASNLDSGVPARFSGSGSGTDFTLNIHPVEEEDAATYYCQHNKELPPTFGGGTRLEIK
Luminescence in BaF/3 [1]: 22400
gMFI [2]: 10900 gMFI
gMFI [3]: 50 gMFI
gMFI [4]: 320 gMFI
gMFI [5]: 349 gMFI

B12: anti-CD300LB antibody CD-01 (antibody, V domains shown)
VH: RVQLQQSGAELVRPGASVTLSCKASGFTFTDFEMHWVKKTPVHGLEWIGAIDPESGNTAYNQKFRGKATLTADKSSSTAYMELRYLTSEDSAVYYCTPLISGADYWGQGTTLTVSS
VL: DVVMTQSPLSLPVSLGDQASISCRSSQSLVHSDGNTYLYWYLQKPGQSPKLLIYKVSNRFSGVPDRFSGSGSGTDFTFKISRVGAEDLGVYFCSQSTHVPWTFGGGTKLEII
gMFI [3]: 309 gMFI
gMFI [4]: 860 gMFI

B13: anti-CD300LB antibody CD-02 (antibody, V domains shown)
VH: QVQLQQPGAELVRPGSSVKLSCQASGYTFTNYWMHWVRQRPIQGLEWIGNIDPSDSETHYNQKFKDRATLTVDKSSSTAYMQLSSLTSEDSAVYYCARSGVYDDEGGDYWGQGTTLTVSS
VL: ENVLTQSPAIMSASPGEKVTMTCSASSSVSYIHWYQQKSSTSPKLWIYDTSKLASGVPGRFSGSGSGNSYSLTISSMETEDVATYYCFQGSGYPLTFGAGTKLELK
gMFI [3]: 1130 gMFI
gMFI [4]: 23 gMFI

Next, values leading:

Luminescence in BaF/3 [1]: 13000
gMFI [3]: 114 gMFI
gMFI [4]: 643 gMFI
gMFI [5]: 1290 gMFI
B2: anti-CD300LB antibody CD-18 (antibody, V domains shown)
VH: DVQLQESGPDLVKPSQSLSLTCTVTGYSITSGYSWHWIRQFPDNKLEWMGYILSRGDTNFNPSLKSRISITRSTSNNQFFLHFNSVTTEDTATYYCARDFFDYWGQGTTLTVSS
VL: DVLMTQTPLSLPVSLGDQASISCRSSQSIVHSNGNTYLEWYLQKPGQSPKLLIYKVSDRFSGVPDRFSGSGSGTDFTLKISRVEAEDLGVYFCFQGSHVPYTFGGGTKLEIK

Luminescence in BaF/3 [1]: 792
gMFI [2]: 8970 gMFI
gMFI [4]: 504 gMFI
gMFI [5]: 233 gMFI
B5: anti-CD300LB antibody CD-16 (antibody, V domains shown)
VH: QIQLVQSGPELKKPGETVKISCKASGYTFTDYSMHWVKQAPGKGLKWMAWINTETGEPTYADDFRGRFAFSLETSGRTAYLEINNLRNEDTATYFCVTYGSSYGMAYWGQGTSVTVSS
VL: B4 VL with P12A, R30S, T31R, A34Y, M37L, N57K, K59E, T64A, E84A, V98I

Luminescence in BaF/3 [1]: 24700
gMFI [3]: 13 gMFI
gMFI [4]: 1680 gMFI
gMFI [5]: 1230 gMFI
B7: anti-CD300LB antibody CD-17 (antibody, V domains shown)
VH: QIQLVQSGPELKKPGETVKISCKASGYTLTDYSMHWVKQAPGKGLKWMGWINTETGEPRYGDDFKGRFAFSLETSASSAYLQINNLKNDDTATYFCATYGRSYGMDFWGQGTSVTVSS
VL: B4 VL with P12A, R30S, T31P, A34H, T64A, E85G, V98L, T106S

Luminescence in BaF/3 [1]: 23000
gMFI [2]: 8330 gMFI
gMFI [4]: 506 gMFI
gMFI [5]: 256 gMFI
B8: anti-CD300LB antibody CD-15 (antibody, V domains shown)
VH: QIQLVQSGPELKKPGETVKISCQVSGYTFTDYSMHWLKQAPGKGLKWMAWINTETGESTYTDEFKGRFVFSLETSVRTAYLKINNLKNEDTATYFCGTYGSSYGMAYWGQGTSVTVSS
VL: B4 VL with R30S, A34S, M37L, N57K, K59E, T64A, S67R
